{"source": "paper PMC7484323", "about": "(Molecular pharmaceutics, 2020)", "origin": "cited, not measured here", "test_system": "B16/F1 melanoma", "conditions": "2 h post-injection"}
{"substance": "hydrazinonicotinamide (HYNIC)-GGNle-CycMSHhex (sidechain bridge or staple) [99mTc(EDDA)-HYNIC-GGNle-CycMSHhex]", "values": [{"measurement": "kidney (renal) uptake", "value": "7.52 ± 0.96", "unit": "%ID/g"}, {"measurement": "liver uptake", "value": "0.52 ± 0.05", "unit": "%ID/g"}, {"measurement": "tumor uptake", "setting": "B16/F1 melanoma", "value": "14.14 ± 4.90", "unit": "%ID/g"}]}
